Experimental data from article PMC3797246 (Structure (London, England : 1993), 2013).
Positions count from the first letter of the chain named. Names and notes keep the numbering of the source.

T1: SARAH domain of human RASSF5 (RASSF5^SARAH, residues 366-413) (human, UniProt Q8WWW0 366-413)
T1 chain (looked up): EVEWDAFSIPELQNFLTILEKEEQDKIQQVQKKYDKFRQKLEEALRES

B1: full-length Mst2 (Mst2^FL, residues 9-491) (enzyme, human, UniProt Q13188 9-491, looked up)
chain: SKLKKLSEDSLTKQPEEVFDVLEKLGEGSYGSVFKAIHKESGQVVAIKQVPVESDLQEIIKEISIMQQCDSPYVVKYYGSYFKNTDLWIVMEYCGAGSVSDIIRLRNKTLIEDEIATILKSTLKGLEYLHFMRKIHRDIKAGNILLNTEGHAKLADFGVAGQLTDTMAKRNTVIGTPFWMAPEVIQEIGYNCVADIWSLGITSIEMAEGKPPYADIHPMRAIFMIPTNPPPTFRKPELWSDDFTDFVKKCLVKNPEQRATATQLLQHPFIKNAKPVSILRDLITEAMEIKAKRHEEQQRELEEEEENSDEDELDSHTMVKTSVESVGTMRATSTMSEGAQTMIEHNSTMLESDLGTMVINSEDEEEEDGTMKRNATSPQVQRPSFMDYFDKQDFKNKSHENCNQNMHEPFPMSKNVFPDNWKVPQDGDFDFLKNLSLEELQMRLKALDPMMEREIEELRQRYTAKRQPILDAMDAKKRRQQNF
modifications: phosphorylated at the activation loop (T180) as purified from bacteria
B2: Mst2 D456A, full-length, in vitro translated (enzyme, human, UniProt Q13188 1-491, looked up)
chain: MEQPPAPKSKLKKLSEDSLTKQPEEVFDVLEKLGEGSYGSVFKAIHKESGQVVAIKQVPVESDLQEIIKEISIMQQCDSPYVVKYYGSYFKNTDLWIVMEYCGAGSVSDIIRLRNKTLIEDEIATILKSTLKGLEYLHFMRKIHRDIKAGNILLNTEGHAKLADFGVAGQLTDTMAKRNTVIGTPFWMAPEVIQEIGYNCVADIWSLGITSIEMAEGKPPYADIHPMRAIFMIPTNPPPTFRKPELWSDDFTDFVKKCLVKNPEQRATATQLLQHPFIKNAKPVSILRDLITEAMEIKAKRHEEQQRELEEEEENSDEDELDSHTMVKTSVESVGTMRATSTMSEGAQTMIEHNSTMLESDLGTMVINSEDEEEEDGTMKRNATSPQVQRPSFMDYFDKQDFKNKSHENCNQNMHEPFPMSKNVFPDNWKVPQDGDFDFLKNLSLEELQMRLKALAPMMEREIEELRQRYTAKRQPILDAMDAKKRRQQNF
modifications: 35S-methionine label
B3: Mst2 R467A, full-length, in vitro translated (enzyme, human, UniProt Q13188 1-491, looked up)
chain: B2 chain with A456D, R467A
modifications: 35S-methionine label
B4: Mst2 L445A, full-length, in vitro translated (enzyme, human, UniProt Q13188 1-491, looked up)
chain: B2 chain with L445A, A456D
modifications: 35S-methionine label
B5: Mst2 R474A, full-length, in vitro translated (enzyme, human, UniProt Q13188 1-491, looked up)
chain: B2 chain with A456D, R474A
modifications: 35S-methionine label
B6: Mst2 K473A, full-length, in vitro translated (enzyme, human, UniProt Q13188 1-491, looked up)
chain: B2 chain with A456D, K473A
modifications: 35S-methionine label
B7: Mst2 R469A, full-length, in vitro translated (enzyme, human, UniProt Q13188 1-491, looked up)
chain: B2 chain with A456D, R469A
modifications: 35S-methionine label
B8: Mst2 L466A, full-length, in vitro translated (enzyme, human, UniProt Q13188 1-491, looked up)
chain: B2 chain with A456D, L466A
modifications: 35S-methionine label
B9: catalytically inactive mutant of the human Mst2 kinase domain (Mst2^KD/D146N) (domain or fragment, UniProt Q13188 16-313, looked up)
chain: EDSLTKQPEEVFDVLEKLGEGSYGSVFKAIHKESGQVVAIKQVPVESDLQEIIKEISIMQQCDSPYVVKYYGSYFKNTDLWIVMEYCGAGSVSDIIRLRNKTLIEDEIATILKSTLKGLEYLHFMRKIHRNIKAGNILLNTEGHAKLADFGVAGQLTDTMAKRNTVIGTPFWMAPEVIQEIGYNCVADIWSLGITSIEMAEGKPPYADIHPMRAIFMIPTNPPPTFRKPELWSDDFTDFVKKCLVKNPEQRATATQLLQHPFIKNAKPVSILRDLITEAMEIKAKRHEEQQRELEEEE
B10: linker-deletion Mst2 (Mst2^ΔL, residues 9-313 and 428-491) (enzyme, human, UniProt Q13188 9-313, looked up)
chain: SKLKKLSEDSLTKQPEEVFDVLEKLGEGSYGSVFKAIHKESGQVVAIKQVPVESDLQEIIKEISIMQQCDSPYVVKYYGSYFKNTDLWIVMEYCGAGSVSDIIRLRNKTLIEDEIATILKSTLKGLEYLHFMRKIHRDIKAGNILLNTEGHAKLADFGVAGQLTDTMAKRNTVIGTPFWMAPEVIQEIGYNCVADIWSLGITSIEMAEGKPPYADIHPMRAIFMIPTNPPPTFRKPELWSDDFTDFVKKCLVKNPEQRATATQLLQHPFIKNAKPVSILRDLITEAMEIKAKRHEEQQRELEEEENWKVPQDGDFDFLKNLSLEELQMRLKALDPMMEREIEELRQRYTAKRQPILDAMDAKKRRQQNF

Legend:
SEC = molecular target: the molecule itself; assay: SEC
co-IP = molecular target: the molecule itself; assay: co-IP
AUC = molecular target: the molecule itself; assay: AUC
[1] = molecular target: T1, SARAH domain of human RASSF5 …; assay: SEC

| Binder | binding compared to wild-type Mst2 (co-IP) | further results |
| --- | --- | --- |
| B1 | – | stoichiometry N (SEC): 2 |
| B2 | ≥ 30% | – |
| B3 | ≥ 30% | – |
| B4 | ≥ 30% | – |
| B5 | ≥ 30% | – |
| B6 | ≥ 30% | – |
| B7 | ≥ 30% | – |
| B8 | ≥ 30% | – |
| B9 | – | stoichiometry N (AUC): 2 |
| B10 | – | binding result [1]: binds |
